Source: the nanobody polyreactivity screen of Harvey et al. (2022)

Experiment: yeast display, Sf9 membrane polyspecificity reagent, FACS + sequencing; frameworks hold sequencing errors
Method in brief: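 In a synthetic yeast display library (Saccharomyces cerevisiae BJ5465), nanobody expression was induced with galactose for 36–48 hours. FACS gates were set low and high (top ~1%) using anti-HA fluorescence for expression and streptavidin fluorescence for binding of the Sf9 membrane reagent. Each polyreactivity label is drawn from the gate of origin.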

Row | Sequence | polyreactivity (PSR sort gate)
1 | QVQLVESGGGLVQAGGSLRLSCAASGFTFTYNAMGWYRQAPGKERELVAAITANGGGTNYADSVKGRFTISRDNAKNTVYLQMNSLKPEDTAVYYCAATIVVAVFESLVFYWYTEDNYWGQGTQVTVSS | low polyreactivity
2 | QVQLVESGGGLVQAGGRLRLSCAASGSIFPQYAMGWYRQAPGKERELVAAITWSGSRTRYADSVKGRFTISRDNAKNTVYLQMNSLKPEDTAVYYCAARVNGQTYYYWGQGTQVTVSS | high polyreactivity
3 | QVQLVESGGGLVQAGGSLRLSCAASGSTFWANAMGWYRQAPGKERELVAGITWNAGSTYYADSVKGRFTISRDYAKNNVYFQMNSLNPEDTAVDYCAAYYHFQGWGPGYNSWGQGTQVTVSS | low polyreactivity
4 | QVQLVESGGGLVQAGGSLRLSCAASGYTFGTYTMGWYRQAPGKERELVAGIDSGGTTNYADSVKGRFTISRDNAKNTVYLKMNRVKPEDTAVYYCTAYHLLIVDYYLGMYYYGGNYYWGQGNQVTVSS | low polyreactivity
5 | QVQLVESGGGLVQAGGSLRLSCAASGSTFQDNAMGWYRQAPGKERELVAVITRTGGDTNYADSVKGRFTISRDNAKNTVYLQMNSLKPEDTAVYYCAADNVYVTWFYYWGQGTQVTVSS | low polyreactivity
6 | QVQLVESGGGLVQAGGSLRLSCAASGIIFVYYTLGWYRQAPGKERELVAAITSGGSTYYADSVKGRFTISRDNAKNTVYLQMNSLKPEDTAVYYCAARTYRQPYYILDYYWGQGTQVTVSS | high polyreactivity
7 | QVKLVESGGGLVQAGGSLRLSCAASGRISFYYAMGWYRQAPGKERELVATISSSGGSTHYADSVKGRFTISRDNAKNTVYLQMNSLKPEDTAVYYCARDDSERIWLEQSGYWGQGTQVTVSS | low polyreactivity
8 | QVQLVESGGGLVQAGGSLRLSCAASGRTFTVYAMGWYRQAPGKEREFVAAITERGGSTYYADSVKGRFTISRDNAKNTVYLQMNSLKPEDTAVYYCAAVYYWRPGWYVRFDYWGHGTQVTVSS | low polyreactivity
9 | QVQLVESGGGLVQAGGSLRLSCAASGYTFSHYAMGWYRQAPGKERELVAGITWSGGSTYYADSVKVRFTISRDNAKNTVYVQMNSLKPEDTSVYYCAAKYYWYYSYSGIPLFDYWGQGTQVTVSS | low polyreactivity
10 | QVQLVESGGGLVQAGGSLRLSCAASGFTFFFNAMGWYRQAPGKERELVASIRSDGDTNYADSVKGRFTISRDNAKNTVYLQMNSLKPEDTAVYYCAKVWYVFRYVSTEYDYWGQGTQVTVSS | high polyreactivity
11 | QVQLVESGRGLVQAGGSLRISCAASGSTFGYYAMGWYRQAPGKERELVAAITSTGRTKYADSVKGRFTISRDNAKNTVYLQMNSLKPEDTAVYYCAADIWGQGTQVTVSS | high polyreactivity
12 | QVQLVESGGGLVPAGGSLPLSCAASGSTFSGHTMGWYRQAPGQDWELVADINWSSGSTYYADSVKGRFTISRDNAKNNVYLQMHSLKPEDTALLYCAAVEPFSDFDYWGQGTQVTLSS | low polyreactivity
13 | QVQLVESGGGLVQAGGSLRLSCAASGSTFGYNAMGCYRQAPGKERELVAAISRSGGRTYYADSVKGRFTISRDNAKNTVYLQMNSLIPEDTAVYYCATYYTNKVPARYYWGQGTQVTVSS | high polyreactivity
14 | QVQLVESGGGLVQAGGSLRLSCAASGHTFRFYTMGWSRQAPGKEREFVAAIRRRTGSTYYADSVKGRFTISRDNAKNTVYLQMNSLKPEDTAVYYCNAVGDARYNYWGQGTQVTVSS | high polyreactivity
15 | QVQLVESGAGLVQAGGSLRLTCAASGSTFNRYVMGWYRQAPGKERDFVATISQGGGSTYYADSVKGRFTISRDNAKNTVYLHMNSLKPDVTAVYYCAAVSTRQYRYPHEYWGQGTQVTVSS | high polyreactivity
16 | QVQHVESGGGLVQAGGSLRLSCAASGFIFNRNAMGWYRQAPGKERELVAAISTRGSTYYADSVKGRFTISRDNAKNTDYLQMNSLKPEDTAVYYCAKAVYVDQGTYYYCGQGTQVTVSS | low polyreactivity
17 | QVQLVESGGGLVQAGGSLRLSCAASGRTFAVYAMGWYRQAPGKERELVAAISGRGGNTYYADSVKGRFTISRDNAKNTVYFQMNSLKPEDTAVYYCAAKAYQSEYGYWGQGTQVTVSS | high polyreactivity
18 | QVQLVESGGGLVQAGGSLRLSCAASGFIFRYYAMGWYRQAPGKERELVAAISNNAGRTYYADSVKGRFTISRDNAKNTVYLQMNSLKPEDTAVYYCAARVWTGRKYDYWGQGTQVTVSS | high polyreactivity
19 | QVQLVESGGGLVQAGGSLRLSCAASGLTIQYNAMVWYRQAPGKERELVAAISRSGGSTYYADSVKGRFTISRDNAKNTEYLQMISLKPEDTAVYYCNKVSPYRGYYWGQGTQVTVSS | high polyreactivity
20 | QVQHVESGGGLVQAGGSLRLSCAASGLTFLSNAMGWYRPARGNEWELVAAINSGARKFYADSVKGRFTISRDNAKNTVYLQMNCLKPEDTAVYYCNADYGKPSYYDDGDYWGEGTQVTVSS | low polyreactivity
21 | QVQLVESGGGLVQAGGSLRLSCAASGRTFGRYAMGWYRQAPGKERELVAAINSGSASTYYADSVKGRFTISRDNAKNTVYLQMNSLKPEDTAVYYCAVYGYWSKSDYWGQGTQVTVSS | high polyreactivity

Row | Sequence | polyreactivity (PSR sort gate)
22 | QVQLVESGGGLVQARGSLRLSCAASGSIFDGNAMGWYRQAPGKERELVAAITWRGTRTYYADSVKGRFTISRDNAKNTVYLQMNSLKPEDTAVYYCNKKWYPYLEHDYWGQGTQGTVSS | high polyreactivity
23 | QDQLVETGLGLVQAGGSLRLSLAASGRTFSYAKAWYRQEPGKERELVAAITKRGGSTNFADSVKGRFTISRDNAKNTVYLQMNSLKPEDTAVYYCATDPYHGSYLTYGRMDYWGQGTQVTVSS | high polyreactivity
24 | QVQLVESGGGLVQAGGSLRLSCAASGNTFTRNTMGWYRQAPGKERELVASISLSGASTYYADSVKGRFTISRDNAKNTVYLQMNSLKPEDTAVYYCAKRRSYGYYRAYNYWGQGTQVTVSS | high polyreactivity
25 | QVQLVESGGGLVKAGGSLRLSCAASGRTFQIYAMGWYRQAPGKESELVAAISRTGASTYYADSVKGRFTISRDKAKNTLFLQLNSLKPEDTAVYYCAANGHCRVYFGGCHWGQGTQVTVSS | high polyreactivity
26 | QLQLVESGGGLVQAGGSLRLSCAPSGRILWVNAMGWYRQAPGKERELVAAISLSGGRTYYADSVKGRFTISRDNAKNTVYLQMNSLKPEDTAVYYCAARTVNYYYTTGDYWGQGTQVTVSS | low polyreactivity
27 | QVQLQESVGGLVQADGSLRLSCAASGTIFTQSYMGWYRQAPGKEREFVAGISNGTKTNYGDSVKGRFTISRDNAKNTVYLQMHRLKLEDTAVYYCAVKGFYVDVLAYWGQGTHVTVSS | high polyreactivity
28 | QVQLVESGGGLVQAGGSLRLSCAASGFTFVRNAMGWYRQAPGNERELVAALSTSAGSTYYADSVKGRFTISRDNAKNTVYLQMNSLKPEDTAVYYSAASASRYFVLAASGGIRYYYWGQGTQVTVSS | high polyreactivity
29 | QVQLVESGGGLVQAGGSLRLSCAASGRTFARYVMGWYRPAPGKERELVASISNSGGSTYYADSVKGRFTISRDNAKNTVYLQMNSQKPEDTAVSYCARRYYYWGQGTQVTVSS | high polyreactivity
30 | QVQLVESGGGLVQAGGSLRLSCAASGITFDIYNMGWYRQAPGKERELVAAISYSGGSTYYADSVKGRFTISRDNAKNTVYLQMYSLKPEDTAVYYCAAYEGTYFTEVDYWGQGTQVTVSS | low polyreactivity
31 | QLQLVESGRGLVQAGGSLRLSCAASVRTFTCYTMGSYRQAPGKEREFVAAIRKSGGSTYYADSVKGRFTISRDNAKNTVYLQMNSLKPEDTAVYYCAAERLYGYWKYIGYDWGQGTQVTVSS | high polyreactivity
32 | QVQLVESGGGLVQAGGSLRLSCAASGSTFTYYAMGWYRQAPGKERELVAAINWDGGRTYYADSVKGRFTISRDNAKNTVYLQMNSLKPEDTAVYYCNAVGRYRSGFDYWGQGTQVTVSS | high polyreactivity
33 | QVQLVESGGGLVQAGGSLRLSCAASGSTFRQYAMGWYRQAPGKERELVAAINWSGSSTYYADSVKGRFTISRDNAKNTVYLQMNSLKPDDTAVYYCAAVVQYWWWKGRGYWGQGTQVTVSS | high polyreactivity
34 | QVQLVESGGGLVQAGGRLRLSCAASGYTFGVYDMGWYRQAPGKERELVAAISGSTYYADSVKGRFTISRDNAKNTVYLQMNSLKPEDTAVYYCAAESYFFSPRTREKFDYWGQGTQVTVSS | low polyreactivity
35 | QVQLVESGGGLVQAGGSLRLSCAASGRTFHWYAMGGYRQAPGKERELVAAIRYSAGSTYYADSVKGRFTISRDNAKNTVYLQMNSLKPEDTAVYYCAAEPYPYGPYYLLWLRYDYWGQGTQVTVSS | low polyreactivity
36 | QVQIVESGGGLVQAGGSLRLSCAASGNTFNYYTMGWYIQAPGKERELVAAIRSGGRTYYADSVKGRFTISRDNANNSVSLQMNSLKPEDTAVYFCAALAVTYRYDYWGQGTQLTVSS | high polyreactivity
37 | QVQLVESGGGLVQAGGSLRLSCAASGSTFLYNAMGWYRQAPGKERELVATISSGGGSTNYADSVKGRFTISRDNAKNTVYLQMNSLKPEDTAVYYCAVEGYDSYKDDYWGQGTQVTVSS | low polyreactivity
38 | QVQHVESGGGLVQAGGSLRLSCAASMGWYRQAPGKERELVAAINSGGSTNYADSVKGRFTISRDNAKNTVYLQMNSLKPEDTAVYYCAKTFSNLPEYDYWGQGTQVTVSS | low polyreactivity
39 | QVQLVESGVGLVQAGGSLRLSCAASGRIFVKYAMGWYRQAPGQEREFVAAITQGGGRTFYADSVKGRFTSSRDNAKNTVYLQMNSLKPEDTAVYYCAATGRGYGRRYFVVYRYDYWGQGTQVTVSS | high polyreactivity
40 | QVQLVESGGGLVQAGGSLRLSCAASGLIFSSNVMGWYRQAPGKERQLVAAIRQRGGSTRYADSVKGRFTISRDNAKNTVYLQMNSLKPEDTEVYYCAADTYYSHSWDSYDYWGQGTQVTVSS | low polyreactivity
41 | QVQLVESGGGLVQAGGSLRLSCASSGSTFPRNAMGWYRQAPGKERELVAAITRSGANTHYADSVKGRFTISRDNAKNTVYLQMNSLKPEDTAVYYCAARSFTAYLGYYWGQGTQVTVSS | high polyreactivity
